Source: the nanobody polyreactivity screen of Harvey et al. (2022)

Experiment: yeast display, Sf9 membrane polyspecificity reagent, FACS + sequencing; frameworks hold sequencing errors
How it was run: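 A nanobody's polyreactivity label depends on the gate it was sorted from. Yeast display cells were stained with 10% biotinylated, detergent-solubilized Sf9 membrane reagent for 1 hour at 4 °C, enriched on streptavidin microbeads and sorted by FACS. The low and high (top ~1%) gates were set on anti-HA fluorescence for expression and streptavidin fluorescence for reagent binding.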

QVQLVESGGGLVQAGGSLRLRCAASGSIFFFYAMGWYRQAPGKERELVAAISKSPSSTYYADSVKGRFTISRDNAKNTVYLQMNSLKPEDTAVYYCNNGYSGIQYYYWGHGTQVTVSS
polyreactivity (PSR sort gate): low polyreactivity

QVQLVESGGGLVQAGGSLRLSCAPSGSIFDFNTMGWYRQAPGKERELVAAISQRTGRTYYADSVKGRFTISRDNAKNTVYLQMNSLKPEDTAVYYCARTDRRLGAHQGDYWGQGTQVTVSS
polyreactivity (PSR sort gate): high polyreactivity

QVQLVESGGGLVQAGGSLRLSCAASGRTISYYAMGWYRQAPGKERELVAAITSSGSRTYYADSVKGRFTISRDNAKNTVYLQMNSLKPEDTAVYYCAAGKPYFRYDSWGQGTQVTVSS
polyreactivity (PSR sort gate): high polyreactivity

QVQLVESGGGLVQAGGSLRLSCAASGFILSDYAMGWYRQAPGKERELVAGINSGGSTYYADSVKGRFTISRDNAKNTVYLQMNSLIPEDTAVYYCAAGVDYWWLVHFLYYYWGQGTQVTVSS
polyreactivity (PSR sort gate): high polyreactivity

QVQLVESGGGLVQAGGSLRLSCAASGSIFNSNAMGWYRQAPGKERELVAAITGSGGRTYYADSVKGRFTISRDNAKNTVYLQMNSLKPEDTAVYYCNAVTYSRRYAYYDWGQGTQVTVSS
polyreactivity (PSR sort gate): high polyreactivity

QVQLVESGGGLVQAGGSLRLSCAASGRISPVYAMGWYRQAPGKERELVAAITSGGSTNYADSVKGRFTISRDNAQNTVYLQMNSLKPEDTAVYYCAVEGFSSAAYDFEYWGQGTQVTVSS
polyreactivity (PSR sort gate): high polyreactivity

QVQLVESGGGLVQAGGSLRLSCDDSGSTFVINDMGWYRQAPGKERELVAAITWGSGSTSYADSVKGRCTISRDNAKNTVYGQMISLKPEDTEVYYCAADVYLGLFGYYAEYNDYWGQGTQVTVSS
polyreactivity (PSR sort gate): low polyreactivity

QVQLVESGGGLVQAGGSLRLSCAASGFIFDQNAMGWYRQAPGKERELVAAITRSGGCTYYADSVKGRFTISRDNAKNTVYLQMYSLNPEDTAVYYCAADLSYRGATRGDYYWGPGTQVTVSS
polyreactivity (PSR sort gate): low polyreactivity

QVQLVESGGGLVQEGGSLRLSCAASGLICQHNARVWSRHAPGKERELVAAISRSAGSSYYADSEKGRFTISRDNAKNTVYLQMNCLKPEDTAVFYCAKRPTPTTKDDTVRYGYWGQGSQVTVSS
polyreactivity (PSR sort gate): low polyreactivity

QVQLVESGGGLVQAGGSLRLSCAASGFTFSNYAMGWYRQAPGKEREFVAAISGTGGSTYYADSVKGRFTISRDNAKNTVYLQMNSLKPEDTAVYYCARRRTYPPGRYYYWGQGTQVTVSS
polyreactivity (PSR sort gate): high polyreactivity

QVQLVESGGGLVQAGGSLRLSCAASGRTFYYYAMGWYRQAPGKERELVATITSSGGSTYYADSVKGRFTISRDNAKNTVYLQINSLIPEDTAVYYCARTYTYKGGNTHSRWYYYWGQGTHVTVSS
polyreactivity (PSR sort gate): high polyreactivity

QVQLVESGGVLVQAGGSLRLSCAAMGWYRQAPGKERELVATITWSGGSTYYADSVKGRFTISRDNAKNTVYLQMNSLKPEDTAVYYCNSRATLLSPANTIRGYDYWGQGTQVTVSS
polyreactivity (PSR sort gate): low polyreactivity

QVQLVESGGGLVQAGGSLRLSCAASGSTFWPYAMGWYRQAPGKERELVAAISNGGGTKYADSVKGRFTISRDNAKNTVYLQMNSLKPEDTAVYYCAKTLWTGRAWYDYWGQGTQVTVSS
polyreactivity (PSR sort gate): high polyreactivity

QVQLVESGGGLVQAGGSLRLSCAASGSIFQGYSMGWYRQAPGKERELVAAITASGGSTYYADSVKGRFTISRDNAKNTVYLQMNSLKPEDTAVYYCATDSYWRQDLYRYEYWGQGTQVTVSS
polyreactivity (PSR sort gate): high polyreactivity

QVQLVESGGGLVQAGGSLRLSCAASGFTFNIKTKGSDRQAPGKDRELVAAITSGGNSSYADSVKGRLTISRDNAKNTVYLQMNRVKPEDTAVYYCATEDFRTDTGMYYWGQGTQVTVSS
polyreactivity (PSR sort gate): low polyreactivity

QVQLVESGGGLVQAGGSLRLSCAASGSTFSKNAMGWYRQAPGKERELVASISTDGDSTYYADSVKGRFTISRDNAKNTVYFQMNSLKPEDTAVYYCNVVYYGRTWVPYVWEYDYWGQGTQVTVSS
polyreactivity (PSR sort gate): low polyreactivity

QVQLVESGGGLVQAGGSLRLSCAASGRIFAGYAMGWYRQAPGKERELVAAISDGGTTNYADSVKGRFTISRDNAKNTVYLQMNSLKPEDTAVYYCAKVAAESYRYGYWGQGTQVTVSS
polyreactivity (PSR sort gate): low polyreactivity

QVQLVESGGGIVQAGGSLRLSCAASGSTFGVYAMGWYRQAPGKERDLVSVIRRGGGTDYADSVKGRFTISRDNAKNTVYLQMNSLNPEVTAVYYCAATVVRSGYLTLEMDYWGQGTQVTVSS
polyreactivity (PSR sort gate): low polyreactivity

QVQLVESGGGLVQAGGSLRLSCAASGNISWYNAMGWYRQAPGKERELVAAITSSGSGTYYADSVKGRFTISRDNAKHTVYLQMNSLKPEDTAVYYCIADNAIRYDYWGQGTQVTVSS
polyreactivity (PSR sort gate): high polyreactivity

QVQLVESGGGLVQAGGSLRLSCAASGSIFGRNAKGSYRQAPGKERELVAAITVSGGRTYYADSVKGRFTISRDNAKNTVYLQMNSLKPEDTAVYYCNKYPVYRAVYGGGYEYWGQGTQVTVSS
polyreactivity (PSR sort gate): high polyreactivity

QVQLVESGGGLVQAGGSLRLSCAASGRTFVYYAMGWYRQAPGKERELVAAITFSGGSTYYADSVKGRFTISRDNAKNTVYLQMNSLKPEDTAVYYCAAQYRYSYPLGDYWGQGTQVTVSS
polyreactivity (PSR sort gate): low polyreactivity

QVQLVESGGGLVQAGGSLRLSCAASGSIFLNYAMGWYRQAPGKERELVAGISNGGSTNYADSVKGRFTISRDNAKYTVYLQMNSLKPEDTAVFYCARPGYKSRGKRFDYWGQGTQVTVSS
polyreactivity (PSR sort gate): low polyreactivity

QVQLVESGGGLVQAGGSLRLSCAASGFIFGTYAMGWYRPAPGKERELVAAITSGGSTYYADSVKGRFTISRDNAKNTVYLQMNSLKPEDTAVYYCAKYHWRLSFSRYPYDYWGQGTQVTVSS
polyreactivity (PSR sort gate): high polyreactivity

QVQLVESGGGLVQAGGSLRLSCAASGSTFEDYSMGWYRQAPGKERELVAAISHIGGSTYYADSVKGRFTISRDNAKNTVYLQMNSLKPDDTAVYYCAKGGFSSKFDYWGQGTQVTVSS
polyreactivity (PSR sort gate): low polyreactivity

QVQLVESGGGLVQAGGSLRLSCAASGSIFTHNAMGWYRQAPGNERELVAAISSGGSTNYADSVKGRFTISRDNAKNTVYLQMNSLKPEDTAVYYCAKSIDGWYWRRRRYDYWGQGTQVTVSS
polyreactivity (PSR sort gate): low polyreactivity

QVQLVESGGGLVQAGGSLRLSCAASGNTFYWNAMGWYRRAPGKERELVAAISTTGVSTYYADSVKGRFTISRDKAKNTVYLQMNSLKPEDTAVYFCAAEIIGYHTIYDYWGQGTQVTVSS
polyreactivity (PSR sort gate): low polyreactivity

QVQLVESGGGLVQAGGSLRLSCAASGRIFFKNAMGWYRQAPGKERELVAGISWSGGRTYYADSVKGRFTISRDNAKNTVYLQMNSLKPEDTAVYYCNAGSSFYRSLRYEYWGQGTQVTVSS
polyreactivity (PSR sort gate): high polyreactivity

QVQLVESGGGLVQSGCSLRLSCAASGSTFYRYAMGWYRQAPGKERELVAAITSAGSTNYADSVKGRFTISRDNAKNTVYLLMNSLKPEDTAVYYCAADHGRPYFSYDYWGQGTQVTVSS
polyreactivity (PSR sort gate): low polyreactivity

QVQLVESGGGLVQAGGSLRLSCAASGSIFIYYAMGWYRQAPGKERELVAGININGGSTYYADSVKGRFTISRDNAKNTVYLQMNSLKPEDTAVYYCAADELWWTYWDFVTNWYQRDYWGQGTQVTVSS
polyreactivity (PSR sort gate): low polyreactivity

QVQLVESGGGLVQAGGSLRLSCAASGSIFYLYAMGWYRPAPGKERELVARITIRGGSTYYADSVKGRFTISRDNAKNTVYLQMNSLKPEDTAVYYCAARRPYGDYDYWGQGTQVTVSS
polyreactivity (PSR sort gate): high polyreactivity

QVQLVESGGGLVQAGGSLRLSCAASGIILVQYVMGWYRQAPGKERELVASISRTGGSTYYADSVKGRFTISRDNAKNTVYLQMNSLKPEDTAVYYCAALAYRYSYPRGYWGQGTQVTVSS
polyreactivity (PSR sort gate): high polyreactivity

QVQLVESGGGLVQAGGSLRLSCAASGSIFRNYAMGWYRQAPGKERELVAAITSIGGGTYYADSVKGRFTISRDNAKNTVYLQMNSLKPEDTAVYYCAAVSGPFVQTSGNGEYDYWGQGTQVTVSS
polyreactivity (PSR sort gate): low polyreactivity

QVQLVESGGGLVQAGGRLRLICAASGSIFVSYALGWYRQAPGKERELVAAISTTGGRTRYADSVKGRFTISRDNAQNTVYLQMNSLKPEDTAVYYCAAVGARKMYYWGQGTQVTVSS
polyreactivity (PSR sort gate): high polyreactivity

QVQLVESGGGLVQAGGSLRLSCAASGSIFAYYAMGWYRQAPGKERELVARITYSTDGTYYADSVKGRFTISRDNAKNTVYLQMNSLKPEDTAVYYCAVDTWWGFKRYKFDYWGQGTQVTVSS
polyreactivity (PSR sort gate): low polyreactivity

QVQLVESGGGLVQAGGSLRLSCAASGSIFSQYVMGWYRQAPGKERELVAAISWSGGHTYYADSVKGRFTISRDNAKNTVYLQMNSLKPEDTAVYYCATVPRKTPGNAELDYWGQGTQVTVSS
polyreactivity (PSR sort gate): high polyreactivity

QVQLVESGGGLVQAGGSLRLSCAASGSIFYSYAMGWYRQAPGKERELVAAISYSSGSTYYADSVKGRFTISRDNAKNTVYLQMNSLKPEDTAVYDCAAEGNGWQVDVTEVGEYDSWGQGTQVTVSS
polyreactivity (PSR sort gate): high polyreactivity

QVQLVESGGGLVQAGGSLRLSCAASGIFRSNARGWYRQAPGKERELVAGISSGGGTNYADSVKGRFTISRDNAKNTVYLQMNSLKPEDTAVYYCAKERIYFDYWYVYTDLVYEYDYWGQGSQVTVSS
polyreactivity (PSR sort gate): low polyreactivity

QVQLVESGGGLVQAGGSLRLSCAASGRIFIGNAMGWYRQAPGKERELVAAISKRGGSTYYADSVKGRFTISRDNAKNTVYLQMNSLKQEDTAVYYCNKESLYREFDYWGQGTQVTVSS
polyreactivity (PSR sort gate): low polyreactivity

QVQLVESGGGLVQAGGSLRLSCAASGRIFGDYAMGWYRQAPGKERELVARITWSGTGTYYADSVKGRFTISRDNAKNTVYLQMNSLKPEDTAVYYCNADWQVQWYYYWGHGTQVTVSS
polyreactivity (PSR sort gate): low polyreactivity

QVQLVESGGGLVQAGGSLRLSCAASGITFTYNAMGWYRQAPGKERELVASITLSGGNTYYADSVTGRFTISRDNAKNTVYLQMNSLKPEDTAVYYCAADDRGSSYGHFTVEYGYWGQGTQVTVSS
polyreactivity (PSR sort gate): low polyreactivity

QVQLVESGGGLVQAGGSLRLSCAASGFTFWYNAMGWYRQAPGKERELVAAITSAGSTSYADSVKGRFTISRDNAKNTVYLQMNSLKPEDTAVYYCNADLASSFSRANKYDYWGQGTQVTVSS
polyreactivity (PSR sort gate): low polyreactivity

QVQLVESGGGLVQAGGSHRLSCAASGFTFVYYAMGWYRQAPGKERELVAAISARTSGTYYADSVKGRFTISRDNAKNTVYLQMNSLTPEDTAVYYCAAGYSYVYWSESAYDYWGQGTQVTVSS
polyreactivity (PSR sort gate): low polyreactivity

QVQLGESGGGLVQAGGSLRLSCAASGIIFRYYAMGWYRQAPGKERELVAAISSSGVSTYYADSVKGRFTISRDNAQNTVYLQMNSLKPEDTAVYYCAAVTTWRMDYWGQGTQVTVSS
polyreactivity (PSR sort gate): high polyreactivity
